Results on five molecules are retold here after patent publication US20240076389A1 (NATIONAL RESEARCH COUNCIL OF CANADA, published 2024).

Assay [1] has as its target T1, AXL fragment # 1 (AXL amino acids 135-226, IgL2).
T1 chain: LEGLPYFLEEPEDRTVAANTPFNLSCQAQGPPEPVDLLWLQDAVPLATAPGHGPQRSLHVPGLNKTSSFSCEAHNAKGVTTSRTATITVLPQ
Briefly: yeast surface display of hAXL fragments, whole yeast cell ELISA, signal normalised to anti-MYC. An excerpt: (§1) Epitope mapping. […] The YSD vector (pPNL6) was from The Pacific Northwest National Laboratory, USA.

Assay [2] addresses T2, AXL fragment # 2 (AXL amino acids 321-429, FN III-2).
T2 chain: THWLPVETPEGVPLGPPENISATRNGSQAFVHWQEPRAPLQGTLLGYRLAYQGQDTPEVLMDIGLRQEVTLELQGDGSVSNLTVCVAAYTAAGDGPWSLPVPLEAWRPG
The assay is described as above.
Excerpt: as §1

The target in assay [3] is T3, AXL fragment # 4 (AXL amino acids 219-335, FN III-1).
T3 chain: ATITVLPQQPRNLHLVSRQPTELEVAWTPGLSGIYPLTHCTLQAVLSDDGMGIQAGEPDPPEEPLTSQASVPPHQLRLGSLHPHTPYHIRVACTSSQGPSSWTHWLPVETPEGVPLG
The description is as above.
Excerpt: as §1

The target in assay [4] is T4, AXL fragment # 5 (AXL amino acids 321-450, FN III-2+).
T4 chain: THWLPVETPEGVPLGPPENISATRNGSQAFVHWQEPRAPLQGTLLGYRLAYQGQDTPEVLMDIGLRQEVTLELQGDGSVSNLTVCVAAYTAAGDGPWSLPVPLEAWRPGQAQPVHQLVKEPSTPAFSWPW
Described as above.
Excerpt: as §1

Assay [5] concerns the target T5, AXL fragment # 7 (AXL amino acids 135-335, IgL2+FN III-1).
T5 chain: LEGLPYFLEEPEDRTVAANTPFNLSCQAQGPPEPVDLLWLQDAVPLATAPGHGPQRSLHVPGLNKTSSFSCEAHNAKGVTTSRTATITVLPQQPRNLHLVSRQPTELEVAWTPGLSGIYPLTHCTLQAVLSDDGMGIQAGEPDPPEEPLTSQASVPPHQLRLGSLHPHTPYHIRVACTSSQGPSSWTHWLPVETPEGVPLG
Described as above.
Excerpt: as §1

The target of assay [6] is T6, AXL fragment # 8 (AXL amino acids 219-450, FN III-1+FN III-2+).
T6 construct: not shown: Yeast display carrier and tags (Aga2p, HA, MYC and any linkers)
T6 chain: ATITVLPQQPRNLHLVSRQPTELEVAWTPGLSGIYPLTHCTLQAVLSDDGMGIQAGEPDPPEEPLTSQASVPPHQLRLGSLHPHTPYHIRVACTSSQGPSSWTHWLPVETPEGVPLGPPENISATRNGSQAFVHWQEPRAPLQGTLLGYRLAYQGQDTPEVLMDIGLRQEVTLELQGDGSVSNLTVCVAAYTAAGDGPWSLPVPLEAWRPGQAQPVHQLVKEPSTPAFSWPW
Described as above.
Excerpt: as §1

Assay [7] deals with T7, AXL fragment # 3 (AXL amino acids 26-138, IgL1).
T7 chain: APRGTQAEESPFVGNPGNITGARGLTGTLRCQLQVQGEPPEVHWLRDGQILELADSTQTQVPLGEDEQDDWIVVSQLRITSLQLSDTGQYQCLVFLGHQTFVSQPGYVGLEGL
Briefly: yeast surface display of hAXL fragments (Aga2-HA-(hAXL)-MYC), whole yeast cell ELISA, signal normalised to anti-MYC.
Excerpt: as §1

The target of assay [8] is T8, AXL fragment # 6 (AXL amino acids 26-226, IgL1+IgL2).
T8 chain: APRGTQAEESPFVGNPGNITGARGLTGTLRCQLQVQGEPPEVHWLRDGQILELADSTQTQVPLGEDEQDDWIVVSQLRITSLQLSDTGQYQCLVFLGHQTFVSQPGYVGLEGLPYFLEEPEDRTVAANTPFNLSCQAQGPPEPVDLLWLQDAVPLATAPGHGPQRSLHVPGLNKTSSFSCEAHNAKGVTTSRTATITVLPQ
The assay is described as above.
Excerpt: as §1

The target of assay [9] is T9, AXL fragment # 9 (AXL amino acids 26-429, IgL1+IgL2+FN III-1+FN III-2).
T9 construct: not shown: Yeast display carrier and tags (Aga2p, HA, MYC and any linkers)
The assay is described as above.
Excerpt: as §1

B1: F107-8D12 (antibody, V domains shown)
VH: QVQLQQPGAELVKPGASVQLSCKASGYTFISFWINWVKQRPGQGLEWMGNIFPGSSSTNYNEKFKSKATLTVDKSSSTAYMQLSSLTSEDSAVYFCARDYYGGSPDYWGQGTTLTVSS
VL: DIVMSQSPSSLAVSAGERVTMSCKSSQSLLNTRTRKNYLAWYQQKPGQSPKLLIYWASTRESGVPDRFTGSGSGTDFTLTISSVQAEDLAVYYCKQSYNLWTFGGGTKLEIK
notes: also called F107-8D12-2; mAb 8D12
As to B1, the binding result in assay [1], in assay [2], in assay [3], in assay [4], in assay [5] and in assay [6] was “no binding” each time. Further, the binding result in assay [7], in assay [8] and in assay [9] was “binds” each time.

B2: F107-7H5 (antibody, V domains shown)
VH: QVQLQQPGAELVKPGASVKLSCKASGYTFTSYWINWVKQRPGQGLEWIGNIYPDSSSTNYNEKFKSKATLTVDKSSTTAYIQFSSLTSEDSAVYYCTRDTYGGSPDYWGQGTTLTVSS
VL: DIVMSQSPSSLAVSAGEKVTMSCKSSQSLLNSRTRKIYLAWYQQKPGQSPKLLIYWASTRQSGVPDRFTGSGSGTDFTLTISSVQAEDLAVYYCKQSYNLWTFGGGTKLEIK
notes: also called F107-7H5-2; mAb 7H5
For the molecule B2, the binding result in assay [1], in [2], in assay [3], in assay [4], in assay [5] and in assay [6] was “no binding” throughout. The binding result in assay [7], in assay [8] and in assay [9] was “binds” throughout.

B3: F107-10G1 (antibody, V domains shown)
VH: EVNLVESGGGVVKPGASLKLSCEASGFTFSNYGMSWVRQTSDKRLEWVASISGGGGRTYYLDNVKGRFIISRENAKNTLYLQMSSLKSEDTALFYCARGARASYFAMDYWGQGSSVTVSS
VL: VIVMTQSHKFMSTSVGDRVSITCKASQDVTTAVAWYQQKPGQSPKLLIYWASTRHTGVPDRFTGSGSGTDYSLTISNVQTEDLAFYYCQQHFTTPLTFGAGTKLELK
notes: also called F107-10G1-3
With B3, the binding result in [1], in [2], in assay [3], in assay [4], in [5] and in assay [6] was “no binding” in each case. Further, the binding result in [7], in assay [8] and in assay [9] was “binds” in each case.

B4: F111-3C8 (antibody, V domains shown)
VH: QVQLQQPGAELGKPGTSVKLSCKASGYTFTSYWMHWVKRVPGQGLEWIGNINPNSTSADYNEKFKRKATLTVDKSSSTAYMQLSTLTSEDSAVYYCTRPLMGPYWYFDVWGTGTTVTVSS
VL: QIVLTQSPAIMSASPGEKVTISCSASSSVSYMYWYQQKPGSSPKPWIYRTSNLASGVPARFSGSGSGTSYSLTISSMEAEDAATYYCQQYHNYPPTFGGGTKLEIK
notes: also called F111-3C8-2
For the molecule B4, the binding result in assay [2] is listed as “no binding”; in [3], “no binding”; in assay [4], “no binding”; in [6], “no binding”; in [8], “binds”; in assay [9] it was “binds”.

B5: F111-5E9 (antibody, V domains shown)
VH: QIQLVQSGPELKKPGETVKISCKASGYTFTKYGMNWVKQAPGKGLKWMGWINTYTGEPTYADDFKGRFAFSLETSASTAYLQINNLTTEDMVTYFCAKGGYYSNPIYPMDYWGQGTSVTVSS
VL: DIQMTQTTSSLSASLGDRVTISCRASQDINNYLNWYQQKPDGTVKLLIYYISRLHSGVPSRFSGSGSGTDYSLTISNLELEDVATYFCQQGNTLPFTFGSGTKLEIK
notes: also called F111-5E9-2; mAb 5E9
As for B5, the binding result in [2] is “no binding”; in [3], “no binding”; in assay [4] it was “no binding”; in assay [6] it was “no binding”; in [8], “binds”; in [9] it was “binds”.
